Experimental data as given in publication PMC5677581 (2017).
βAla = NCCC(=O)O

Legend:
MLL1 [1] = molecular target: T1, MLL1 (Homo sapiens); experiment: fluorescence polarization
T1 chain: {fluorescein-βAla}-SDIMDFVLKNTP-NH2

MLL-WT [2] = molecular target: T2, MLL-WT (Homo sapiens); experiment: fluorescence polarization
T2 chain: {fluorescein-βAla}-DCGNILPSDIMDFVLKNTP-NH2

MLL1 [3] = molecular target: T3, MLL1 (Homo sapiens); experiment: fluorescence polarization competition
T3 chain: Ac-SDIMDFVLKNTP-NH2

MLL-WT [4] = molecular target: T4, MLL-WT (Homo sapiens); experiment: fluorescence polarization competition
T4 chain: Ac-DCGNILPSDIMDFVLKNTP-NH2

Kd (MLL1 [1]): > 100 µM | Kd (MLL-WT [2]): 1 µM | Ki (MLL1 [3]): > 1000 µM | Ki (MLL-WT [4]): 3 µM
B1: KIX domain of CBP KIX (protein)
chain: not shown
